Our source for the Kd values is article PMC3605307 (2013).

Common to all, as to experiment: SPR
For orientation: SPR reads the build-up and loss of mass on a sensor chip optically.

Test [1] concerns the target Human TRAIL-R2-Fc triple mutation V167A-W173A-V179A (human, UniProt O14763 58-184, V167A | W173A | V179A).
The target in another test is Human TRAIL-R2-Fc V167A (human, UniProt O14763 58-184, V167A).
Test [2] addresses Human TRAIL-R2-Fc D109A together with E78A (human, UniProt O14763 58-184, E78A | D109A).
The next test concerns the target Human TRAIL-R2-Fc F112A (human, UniProt O14763 58-184, F112A).

Human TRAIL-R2-Fc D109A together with E78A, sequence (O14763 58-184 E78A/D109A): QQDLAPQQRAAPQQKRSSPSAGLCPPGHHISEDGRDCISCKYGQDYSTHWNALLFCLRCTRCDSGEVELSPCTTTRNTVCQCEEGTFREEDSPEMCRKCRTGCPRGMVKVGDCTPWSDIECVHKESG
Human TRAIL-R2-Fc triple mutation V167A-W173A-V179A, sequence (O14763 58-184 V167A/W173A/V179A): as the sequence (O14763 58-184 E78A/D109A) above, with A21E, A52D, V110A, W116A, V122A counted along it
Human TRAIL-R2-Fc V167A, sequence (O14763 58-184 V167A): as the sequence (O14763 58-184 E78A/D109A) above, with A21E, A52D, V110A counted along it
Human TRAIL-R2-Fc F112A, sequence (O14763 58-184 F112A): as the sequence (O14763 58-184 E78A/D109A) above, with A21E, A52D, F55A counted along it

B1: TRAIL (TNF-related apoptosis inducing ligand) ectodomain (ligand)
chain: TNELKQMQDKYSKSGIACFLKEDDSYWDPNDEESMNSPCWQVKWQLRQLVRKMILRTSEETISTVQEKQQNISPLVRERGPQRVAAHITGTRGRSNTLSSPNSKNEKALGRKINSWESSRSGHSFLSNLHLRNGELVIHEKGFYYIYSQTYFRFQEEIKENTKNDKQMVQYIYKYTSYPDPILLMKSARNSCWSKDAEYGLYSIYQGGIFELKENDRIFVSVTNEHLIDMDHEASFFGAFLVG
As a reminder, the Kd is the constant that tells how readily two partners part at equilibrium. Lower therefore signals higher affinity. On to B1, for which the Kd (in test [1]; in the test with Human TRAIL-R2-Fc V167A; in test [2]; in the test with Human TRAIL-R2-Fc F112A) was 4 nM throughout.

B2: Recombinant UL141 ectodomain (soluble, released from the Fc fusion) (domain or fragment)
chain: SFPFATADIAEKMWAENYETTSPAPVLVAEGEQVTIPCTVMTHSWPMVSIRARFCRSHDGSDELILDAVKGHRLMNGLQYRLPYATWNFSQLHLGQIFSLTFNVSTDTAGMYECVLRNYSHGLIMQRFVILTQLETLSRPDEPCCTPALGRYSLGDQIWSPTPWRLRNHDCGMYRGFQRNYFYIGRADAEDCWKPACPDEEPDRCWTVIQRYRLPGDCYRSQPHPPKFLPVTPAPPADIDTGMSPWATRG
Molecule B2 showed a Kd in test [2] of 60 nM.
